What all share (assay type): biochemical
Series [1] addresses T1, Arabidopsis LL-DAP-AT (At4g33680) (Arabidopsis thaliana, UniProt Q93ZN9).
T1 construct: The recombinant protein lacks the first 39 amino acids of the At4g33680 protein; hexa-His (N); S-TAG (N); made in house; host or cells: E. coli BL21-CodonPlus-RIPL
The series is described as follows: Quantitative reverse assay coupled to Ddh, pure recombinant LL-DAP-AT. The following applies: 30° C. As for the experimental part: (§1) For enzyme assays of crude proteins, extracts were prepared by grinding tissue in liquid nitrogen with 100 mM HEPESKOH (pH 7.6), followed by centrifugation at 10,000 g for 15 min, and then buffer exchange using an Amicon Ultra 30,000 MWCO filter. […] Reactions were incubated at 30° C. and the ΔA (440 nm) measured continuously. […] The reaction was incubated at 30° C., and the decrease in A340 was measured. […] The reaction was run to completion, determined by monitoring the increase in A340.
For this reason quantitative coupled assays were developed to assess the enzyme activity in both the reverse and forward directions. […] The reaction sequence is shown in Scheme 1.

Series [2] concerns the target T1, Arabidopsis LL-DAP-AT (At4g33680). The series is described as follows: Quantitative forward assay coupled to 2-OG dehydrogenase, pure recombinant LL-DAP-AT. The following applies: for Vmax: forward assay; for Forward (biosynthetic) activity disfavored compared with the reverse activity: initial rate, forward versus reverse. The procedure: FIG. 4. […] The forward assay was conducted in two steps. […] The aminotransferase was assayed in the second step.
as §1, with “A340. […] The kinetic constants were calculated by nonlinear regression analysis using GraphPad Prizm version 4.03.” for “A340.”
The overall reaction series is shown in Scheme 2.
Thio-NADH has an absorbance maximum at 398 nm, which can be discerned from NADPH, which has an absorbance maximum at 340 nm. FIG. 4 illustrates such a reaction. […] Two plots are shown using 0.55 and 0.055 mM m-DAP.

The test system of series [3] is LL-DAP transaminase. The series is described as follows: Quantitative forward assay of purified microbial LL-DAP transaminases. The procedure: (§2) Enzyme assays were performed as described above in Examples I and II.
(§3) The catalytic properties of sll0480, BF2643, Dhaf—3980, MTH52, and SfumDRAFT0821 were studied in greater detail using purified enzymes to determine their kinetic constants using quantitative forward and reverse assays.

The subject of series [4] is LL-DAP transaminase. Kind of series: Quantitative reverse assay of purified microbial LL-DAP transaminases. The following applies: reverse. The procedure: as §2, §3
The target of a further series is T2, LL-DAP-AT (At4g33680) (Arabidopsis thaliana, UniProt Q93ZN9).
T2 construct: The recombinant protein lacks the first 39 amino acids of the At4g33680 protein; hexa-His (N); S-TAG (N); made in house; host or cells: E. coli BL21-CodonPlus-RIPL
Kind of series: Reverse OAB assay of pure recombinant LL-DAP-AT, temperature and pH optimum. The following applies: data not shown. The procedure: as §1, with “A340. […] The kinetic constants were calculated by nonlinear regression analysis using GraphPad Prizm version 4.03.” for “A340.”
The kinetic properties of the pure recombinant At4g33680 enzyme were studied using several different assays. […] Most aminotransferases require pyridoxal phosphate as a cofactor (Liepman and Olsen, 2004). The Lys residue at position 305 in the At4g33680 protein is predicted to be the pyridoxal phosphate ligand. […] The enzyme was also found to show a temperature optimum of 36° C. and a pH optimum of 7.6 when HEPESKOH buffer was used, and 7.9 when Tris HCl buffer was used (data not shown).

Series [5] concerns the target T3, CT390 (Chlamydia trachomatis serovar D, UniProt O84395).
T3 construct: His-Tag (N); made in house; host or cells: E. coli
Kind of series: Quantitative reverse assay of pure CT390. The note with it: reverse assay, saturating substrates.

For series [6], the target named is T3, CT390. Kind of series: Quantitative forward assay of pure CT390. The note with it: saturating substrates. The procedure:
All enzyme assays were carried out essentially as described in Example I. Incubation temperature was 30° C. Kinetic constants were determined by varying substrate concentrations while keeping the co-substrate level constant at the concentration described below. Kinetic data were analyzed by non-linear regression analysis using GraphPad Prizm Version 4.03.
Quantitative assay of the physiologically forward reaction was carried out sequentially in a pre-reaction to generate THDP from m-DAP followed by an LL-DAP aminotransferase assay. […] The pre-reaction was run to completion, monitored by the increase in absorbance at 340 nm resulting from NADPH formation. The aminotransferase reaction was monitored at 398 nm to measure the formation of thioNADH. […] Subsequently, the aminotransferase assay was initiated by addition of CT390, bringing the total reaction volume to 1 mL.

B1: Arabidopsis LL-DAP-AT: LL-DAP aminotransferase encoded by Arabidopsis locus At4g33680 (SEQ ID NO: 7), recombinant protein (protein, listed as Arabidopsis thaliana)
chain: MSSTHQLVSSMISSSSSTFLAPSNFNLRTRNACLPMAKRVNTCKCVATPQEKIEYKTKVSRNSNMSKLQAGYLFPEIARRRSAHLLKYPDAQVISLGIGDTTEPIPEVITSAMAKKAHELSTIEGYSGYGAEQGAKPLRAAIAKTFYGGLGIGDDDVFVSDGAKCDISRLQVMFGSNVTIAVQDPSYPAYVDSSVIMGQTGQFNTDVQKYGNIEYMRCTPENGFFPDLSTVGRTDIIFFCSPNNPTGAAATREQLTQLVEFAKKNGSIIVYDSAYAMYMSDDNPRSIFEIPGAEEVAMETASFSKYAGFTGVRLGWTVIPKKLLYSDGFPVAKDFNRIICTCFNGASNISQAGALACLTPEGLEAMHKVIGFYKENTNIIIDTFTSLGYDVYGGKNAPYVWVHFPNQSSWDVFAEILEKTHVVTTPGSGFGPGGEGFVRVSAFGHRENILEACRRFKQLYK
In the case of B1, the Vmax is given as 22.3 ± 0.3 μmol min^−1 mg^−1 protein in series [1] (pH 7.5); 22.3 μmol min^−1 mg^−1 protein in series [1] (pH 7.5, listed as LL-DAP-AT); 0.38 ± 0.01 μmol min^−1 mg^−1 protein in series [2]; 0.38 μmol min^−1 mg^−1 protein in series [2] (listed as LL-DAP-AT). Moreover, the “Forward (biosynthetic) activity disfavored compared with the reverse activity” value is 50 fold in series [2] and “approximately 60 fold” in series [2] (listed as A. thaliana enzyme). Besides, the “Vmax F” value with LL-DAP transaminase [3] was found to be 0.8 µmol/min/mg. Further, the “Vmax R” value in the series on LL-DAP transaminase [4] is 12 µmol/min/mg. The pH optimum was 7.6 with LL-DAP-AT (At4g33680) (HEPESKOH buffer) and 7.9 in the series with LL-DAP-AT (At4g33680) (Tris HCl buffer). Also, in the series with LL-DAP-AT (At4g33680), the Temperature optimum is 36 °C.

B2: CT390: LL-DAP aminotransferase encoded by ct390 of Chlamydia trachomatis (SEQ ID NO: 9), His-Tag fusion (protein, listed as Chlamydia trachomatis)
chain: MKRNPHFVSLTKNYLFADLQKRVAQFRLENPQHTVINLSIGDTTQPLNASVAEAFASSIARLSSPTTCRGYGPDFGLPALRQKLSEDFYRGFVDAKEIFISDGAKVDLFRLLSFFGPNQTVAIQDPSYPAYLDIARLTGAKEIIALPCLQENAFFPEFPEDTHIDILCLCSPNNPTGTVLNKDQLRAIVHYAIEHEILILFDAAYSTFISDPSLPKSIFEIPDARFCAIEINSFSKPLGFAGIRLGWTVIPQELTYADGHFVIQDWERFLSTTFNGASIPAQEAGVAGLSILPQLEAIHYYRENSDLLRKALLATGFEVFGGEHAPYLWVKPTQANISDRDLFDFFLREYHIAITPGIGFGRSGSGFVRFSSLGKREDILAACERLQMAPALQS
modifications: His-Tag
Regarding B2, the Vmax came to 0.59 μmol min^−1mg proteins^−1 in the series with CT390 [5] and 0.38 μmol min^−1mg proteins^−1 with CT390 [6].

The record behind these values is patent US20090158455A1, “COMPOSITIONS AND METHODS FOR MODULATING LYSINE PRODUCTION” (priority 2005, published 2009).
